Results as given in US20180030151A1 (MOGAM INSTITUTE FOR BIOMEDICAL RESEARCH, published 2018).
Where two headings read alike, the source gives them in different places.

Legend:
[1] = target: T1, recombinant human TFPI (tissue factor pathway inhibitor) (human, UniProt P10646 29-304); experiment: cell-based or functional assay
[2] = target: T1, recombinant human TFPI (tissue factor …); experiment: cell-based or functional assay; remark: listed apart in the source
[3] = target: T1, recombinant human TFPI (tissue factor …); experiment: cell-based or functional assay; remark: listed apart in the source
[4] = target: T1, recombinant human TFPI (tissue factor …); experiment: cell-based or functional assay; remark: listed apart in the source
[5] = target: T1, recombinant human TFPI (tissue factor …); experiment: cell-based or functional assay; remark: listed apart in the source
[6] = target: T1, recombinant human TFPI (tissue factor …); experiment: cell-based or functional assay; remark: listed apart in the source
[7] = target: T1, recombinant human TFPI (tissue factor …); experiment: cell-based or functional assay; remark: listed apart in the source
[8] = target: T1, recombinant human TFPI (tissue factor …); experiment: cell-based or functional assay; remark: listed apart in the source
[9] = target: T1, recombinant human TFPI (tissue factor …); experiment: cell-based or functional assay; remark: listed apart in the source
[10] = target: T1, recombinant human TFPI (tissue factor …); experiment: SPR, Biacore T-200; IgG captured on protein A (CM5), TFPI as analyte
Method: Dissociation of the TFPI associated with the antibody was induced by running 10 mM glycine-HCl (pH 1.5) at a flow rate for 30 seconds. The affinities in terms of kinetic rate constants (Kₒₙ and Koff) and equilibrium dissociation constant (KD) were evaluated using Biacore T-200 evaluation software, and the results are shown in Table 24 below.

- % of Normalized, TF/FVIIa/FX complex assay, Ab 3.13 nM [1]: 6%
- % of Normalized, TF/FVIIa/FX complex assay, Ab 6.25 nM [1]: 8.3%
- % of Normalized, TF/FVIIa/FX complex assay, Ab 12.5 nM [1]: 10.3%
- % of Normalized, TF/FVIIa/FX complex assay, Ab 25 nM [1]: 43.7%
- % of Normalized, TF/FVIIa/FX complex assay, Ab 50 nM [1]: 80.3%
- % of Normalized, TF/FVIIa/FX complex assay, Ab 100 nM [1]: 99.8%
- FXa assay % of FXa alone, 2.5 nM Ab, 10 nM TFPI [2]: 8.4%
- FXa assay % of FXa alone, 5 nM Ab, 10 nM TFPI [2]: 40.8%
- FXa assay OD, 2.5 nM Ab, 10 nM TFPI [2]: 0.0605
- FXa assay OD, 5 nM Ab, 10 nM TFPI [2]: 0.293
- FXa assay OD, 10 nM Ab, 10 nM TFPI [2]: 0.605
- FXa assay % of FXa alone, 2.5 nM Ab, 10 nM TFPI [3]: 8.7%
- FXa assay % of FXa alone, 5 nM Ab, 10 nM TFPI [3]: 47.3%
- FXa assay % of FXa alone, 10 nM Ab, 10 nM TFPI [3]: 89.6%
- FXa assay % of FXa alone, 20 nM Ab, 10 nM TFPI [3]: 101%
- FXa assay OD, 2.5 nM Ab, 10 nM TFPI [3]: 0.042
- FXa assay OD, 5 nM Ab, 10 nM TFPI [3]: 0.229
- FXa assay OD, 10 nM Ab, 10 nM TFPI [3]: 0.433
- FXa assay OD, 20 nM Ab, 10 nM TFPI [3]: 0.488
- FXa assay % of FXa alone, 2.5 nM Ab, 10 nM TFPI [4]: 8.9%
- FXa assay % of FXa alone, 5 nM Ab, 10 nM TFPI [4]: 63.1%
- FXa assay % of FXa alone, 10 nM Ab, 10 nM TFPI [4]: 85.3%
- FXa assay % of FXa alone, 20 nM Ab, 10 nM TFPI [4]: 88.5%
- FXa assay OD, 2.5 nM Ab, 10 nM TFPI [4]: 0.0715
- FXa assay OD, 5 nM Ab, 10 nM TFPI [4]: 0.509
- FXa assay OD, 10 nM Ab, 10 nM TFPI [4]: 0.688
- FXa assay OD, 20 nM Ab, 10 nM TFPI [4]: 0.714
- FXa assay % of FXa alone, 2.5 nM Ab, 10 nM TFPI [5]: 7.9%
- FXa assay % of FXa alone, 5 nM Ab, 10 nM TFPI [5]: 37.7%
- FXa assay % of FXa alone, 10 nM Ab, 10 nM TFPI [5]: 84.3%
- FXa assay % of FXa alone, 20 nM Ab, 10 nM TFPI [5]: 91.7%
- FXa assay OD, 2.5 nM Ab, 10 nM TFPI [5]: 0.064
- FXa assay OD, 5 nM Ab, 10 nM TFPI [5]: 0.306
- FXa assay OD, 10 nM Ab, 10 nM TFPI [5]: 0.684
- FXa assay OD, 20 nM Ab, 10 nM TFPI [5]: 0.745
- FXa assay % of FXa alone, 2.5 nM Ab, 10 nM TFPI [6]: 6.7%
- FXa assay % of FXa alone, 5 nM Ab, 10 nM TFPI [6]: 26.6%
- FXa assay % of FXa alone, 10 nM Ab, 10 nM TFPI [6]: 82.3%
- FXa assay % of FXa alone, 20 nM Ab, 10 nM TFPI [6]: 84%
- FXa assay OD, 2.5 nM Ab, 10 nM TFPI [6]: 0.051
- FXa assay OD, 5 nM Ab, 10 nM TFPI [6]: 0.203
- FXa assay OD, 10 nM Ab, 10 nM TFPI [6]: 0.626
- FXa assay OD, 20 nM Ab, 10 nM TFPI [6]: 0.639
- FXa assay % of FXa alone, 2.5 nM Ab, 10 nM TFPI [7]: 5.2%
- FXa assay % of FXa alone, 5 nM Ab, 10 nM TFPI [7]: 8%
- FXa assay % of FXa alone, 10 nM Ab, 10 nM TFPI [7]: 52.7%
- FXa assay % of FXa alone, 20 nM Ab, 10 nM TFPI [7]: 78.4%
- FXa assay OD, 2.5 nM Ab, 10 nM TFPI [7]: 0.045
- FXa assay OD, 5 nM Ab, 10 nM TFPI [7]: 0.0695
- FXa assay OD, 10 nM Ab, 10 nM TFPI [7]: 0.459
- FXa assay OD, 20 nM Ab, 10 nM TFPI [7]: 0.682
- FXa assay % of FXa alone, 2.5 nM Ab, 10 nM TFPI [8]: 8.1%
- FXa assay % of FXa alone, 5 nM Ab, 10 nM TFPI [8]: 16.2%
- FXa assay % of FXa alone, 10 nM Ab, 10 nM TFPI [8]: 80.9%
- FXa assay % of FXa alone, 20 nM Ab, 10 nM TFPI [8]: 92.8%
- FXa assay OD, 2.5 nM Ab, 10 nM TFPI [8]: 0.096
- FXa assay OD, 5 nM Ab, 10 nM TFPI [8]: 0.193
- FXa assay OD, 10 nM Ab, 10 nM TFPI [8]: 0.963
- FXa assay OD, 20 nM Ab, 10 nM TFPI [8]: 1.1
- FXa assay % of FXa alone, 2.5 nM Ab, 10 nM TFPI [9]: 7.3%
- FXa assay % of FXa alone, 5 nM Ab, 10 nM TFPI [9]: 25.2%
- FXa assay % of FXa alone, 10 nM Ab, 10 nM TFPI [9]: 83.6%
- FXa assay % of FXa alone, 20 nM Ab, 10 nM TFPI [9]: 85.5%
- FXa assay OD, 2.5 nM Ab, 10 nM TFPI [9]: 0.06
- FXa assay OD, 5 nM Ab, 10 nM TFPI [9]: 0.208
- FXa assay OD, 10 nM Ab, 10 nM TFPI [9]: 0.691
- FXa assay OD, 20 nM Ab, 10 nM TFPI [9]: 0.707
- Kd [10]: 0.0301 nM
B1: clone 1023 (antibody, V domains shown)
VH: EVQLVESGGGLVKPGGSLRLSCAASGFTFSSYAMNWVRQAPGKGLEWVGTITTGGSYTYYADSVDGRFTISRDNAKNSLYLQMNSLRAEDTAVYYCARQDGNFLMDYWGQGTLVTVSS
VL: DVVMTQTPLSLPVTLGQPASISCKSSQSLLDIDGKTYLNWLQQRPGQSPKRLIYLVSKLDSGVPDRFTGSGSGTDFTLKISRVEAEDVGVYYCWQGTHFPFTFGQGTKVEIKR
notes: scFv on yeast at selection; human IgG4/kappa IgG as purified
